Each block holds one binder with its values, some of them ahead of it.
What was measured:
[1] = target: T1, phosphorylated neutral trehalase Nth1 (pNth1) (Saccharomyces cerevisiae, UniProt P32356 1-751, phosphorylated (sites not given)); assay: SAXS
T1 sequence: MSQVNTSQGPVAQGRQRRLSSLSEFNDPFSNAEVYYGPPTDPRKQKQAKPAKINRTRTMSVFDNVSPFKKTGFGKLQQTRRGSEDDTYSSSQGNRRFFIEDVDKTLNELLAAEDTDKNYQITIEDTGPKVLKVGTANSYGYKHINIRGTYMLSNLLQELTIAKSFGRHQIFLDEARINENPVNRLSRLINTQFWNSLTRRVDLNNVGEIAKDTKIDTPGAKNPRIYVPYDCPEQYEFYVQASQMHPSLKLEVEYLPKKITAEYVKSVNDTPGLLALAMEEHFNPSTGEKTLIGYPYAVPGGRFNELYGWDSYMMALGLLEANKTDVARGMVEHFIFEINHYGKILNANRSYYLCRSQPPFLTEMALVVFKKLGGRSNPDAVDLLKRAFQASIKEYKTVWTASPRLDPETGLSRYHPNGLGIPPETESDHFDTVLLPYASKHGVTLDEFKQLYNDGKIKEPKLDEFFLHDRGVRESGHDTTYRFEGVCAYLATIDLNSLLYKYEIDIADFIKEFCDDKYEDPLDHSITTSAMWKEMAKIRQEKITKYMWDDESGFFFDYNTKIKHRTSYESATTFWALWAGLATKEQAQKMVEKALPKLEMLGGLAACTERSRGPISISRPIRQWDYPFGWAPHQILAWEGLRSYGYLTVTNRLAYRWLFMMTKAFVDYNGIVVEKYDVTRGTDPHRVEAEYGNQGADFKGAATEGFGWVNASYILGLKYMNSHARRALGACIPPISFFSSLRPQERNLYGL

[2] = target: the molecule itself
[3] = target: the molecule itself; assay: SEC

binding result [1]: binds
B1: yeast 14-3-3 protein Bmh1 (natural protein)
chain: MSTSREDSVYLAKLAEQAERYEEMVENMKTVASSGQELSVEERNLLSVAYKNVIGARRASWRIVSSIEQKEESKEKSEHQVELICSYRSKIETELTKISDDILSVLDSHLIPSATTGESKVFYYKMKGDYHRYLAEFSSGDAREKATNASLEAYKTASEIATTELPPTHPIRLGLALNFSVFYYEIQNSPDKACHLAKQAFDDAIAELDTLSEESYKDSTLIMQLLRDNLTLWTSDMSESGQAEDQQQQQQHQQQQPPAAAEGEAPK

B2: DNA-binding domain of human FoxP1 (domain or fragment)
chain: AEVRPPFTYASLIRQAILESPEKQLTLNEIYNWFTRMFAYFRRNAATWKNAVRHNLSLHKCFVRVENVKGAVWTVDEVEFQKRRPQKISGNPSL
dH (dimer dissociation, van't Hoff) [2]: 23.1 kcal•mol‐1

B3: human HtrA3 lacking the N-terminal domain (enzyme)
chain: GLHQLSSPRYKFNFIADVVEKIAPAVVHIELFLRHPLFGRNVPLSSGSGFIMSEAGLIITNAHVVSSNSAAPGRQQLKVQLQNGDSYEATIKDIDKKSDIATIKIHPKKKLPVLLLGHSADLRPGEFVVAIGSPFALQNTVTTGIVSTAQREGRELGLRDSDMDYIQTDAIINYGNSGGPLVNLDGEVIGINTLKVTAGISFAIPSDRITRFLTEFQDKQIKDWKKRFIGIRMRTITPSLVDELKASNPDFPEVSSGIYVQEVAPNSPSQRGGIQDGDIIVKVNGRPLVDSSELQEAVLTESPLLLEVRRGNDDLLFSIAPEVVM
stoichiometry N [3]: 3

Reference: publication PMC4632850 (Protein Science : A Publication of the Protein Society, 2015)
